One molecule from patent US20070244048A1 (published 2007) can be followed below.

For orientation: EC50 means the concentration at which the effect is half-maximal. High values mean weaker potency, low ones greater potency. One may read the IC50 as the concentration needed to halve the response being measured. High values mean a need for much substance, low ones inhibition by little substance.

Like-named read-outs stand apart in the source and are kept apart here. No end group written: not given here.

Test [1] concerns the target T1, human NMUR2 (human, UniProt Q9GZQ4 1-415). As to the kind of experiment: cell-based or functional assay.
Test [2] has as its target T2, human NMUR1 (human, UniProt Q9HB89 1-426).
T2 sequence (looked up): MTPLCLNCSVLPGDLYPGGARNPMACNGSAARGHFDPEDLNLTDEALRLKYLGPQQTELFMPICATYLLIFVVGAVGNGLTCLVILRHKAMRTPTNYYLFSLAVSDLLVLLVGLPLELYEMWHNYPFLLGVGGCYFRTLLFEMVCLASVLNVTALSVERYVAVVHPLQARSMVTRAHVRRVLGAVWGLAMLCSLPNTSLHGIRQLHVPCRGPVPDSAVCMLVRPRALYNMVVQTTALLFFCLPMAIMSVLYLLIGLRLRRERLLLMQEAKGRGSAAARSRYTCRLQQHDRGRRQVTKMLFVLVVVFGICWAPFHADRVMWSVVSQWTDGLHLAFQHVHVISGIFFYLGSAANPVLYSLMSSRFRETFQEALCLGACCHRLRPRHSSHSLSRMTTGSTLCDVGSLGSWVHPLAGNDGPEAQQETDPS
As to the kind of experiment: cell-based or functional assay.

In test [3] the target is T3, rat NMUR1-TTG (rat, UniProt Q9JJI5 1-425).
T3 construct: whole, on cells; Cell line with the start codon (TTG) as predicted from genomic databases; also called rat R1-TTG
T3 sequence (looked up): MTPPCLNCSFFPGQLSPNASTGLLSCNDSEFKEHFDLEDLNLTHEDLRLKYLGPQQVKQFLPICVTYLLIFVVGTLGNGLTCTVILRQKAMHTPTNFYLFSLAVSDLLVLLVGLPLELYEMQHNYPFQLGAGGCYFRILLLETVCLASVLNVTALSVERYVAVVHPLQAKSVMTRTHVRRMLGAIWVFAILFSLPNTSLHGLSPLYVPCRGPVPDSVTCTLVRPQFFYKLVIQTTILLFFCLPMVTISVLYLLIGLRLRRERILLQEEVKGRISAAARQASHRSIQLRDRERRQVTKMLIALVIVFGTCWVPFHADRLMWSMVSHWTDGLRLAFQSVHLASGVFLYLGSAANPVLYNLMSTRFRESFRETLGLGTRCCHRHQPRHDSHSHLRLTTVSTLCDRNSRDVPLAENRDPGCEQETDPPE
As to the kind of experiment: 125I-hNMU-25 displacement, cell membranes.

Test [4] addresses T2, human NMUR1. As to the kind of experiment: 125I-hNMU-25 displacement, cell membranes.
Test [5] deals with T4, mouse NMUR2 (mouse, UniProt Q8BZ39 1-395).
T4 construct: whole, on cells; also called mouse R2
As to the kind of experiment: 125I-hNMU-25 displacement, cell membranes.

For test [6], the target named is T3, rat NMUR1-TTG. As to the kind of experiment: cell-based or functional assay.
Test [7] deals with T1, human NMUR2. As to the kind of experiment: cell-based or functional assay. The source holds these as a separate data set.
The target in test [8] is T2, human NMUR1. As to the kind of experiment: cell-based or functional assay. This is another data set of the same source.
Test [9] concerns the target T5, mouse NMUR1-ATG (mouse, UniProt O55040 1-428).
T5 sequence (looked up): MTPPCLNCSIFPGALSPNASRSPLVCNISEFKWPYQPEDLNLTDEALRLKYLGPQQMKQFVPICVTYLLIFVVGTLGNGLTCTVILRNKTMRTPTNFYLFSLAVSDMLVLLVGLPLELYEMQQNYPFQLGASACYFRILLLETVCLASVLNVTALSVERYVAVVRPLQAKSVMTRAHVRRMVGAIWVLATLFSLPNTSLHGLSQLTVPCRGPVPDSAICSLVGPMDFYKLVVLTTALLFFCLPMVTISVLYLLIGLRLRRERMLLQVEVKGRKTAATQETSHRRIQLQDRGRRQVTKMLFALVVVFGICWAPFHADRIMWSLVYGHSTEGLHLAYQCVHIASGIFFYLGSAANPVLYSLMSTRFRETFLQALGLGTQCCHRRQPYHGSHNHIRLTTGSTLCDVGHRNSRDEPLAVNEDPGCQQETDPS
As to the kind of experiment: cell-based or functional assay.

Test [10] addresses T6, mouse NMUR1-CTG (mouse, UniProt O55040 1-428).
T6 sequence (looked up): T5 sequence (looked up)
As to the kind of experiment: cell-based or functional assay.

The target in test [11] is T7, rat NMUR2 (rat, UniProt Q9ESQ4 1-395). As to the kind of experiment: cell-based or functional assay.
The target in test [12] is T4, mouse NMUR2. As to the kind of experiment: cell-based or functional assay.
Test [13] concerns the target T8, rat NMUR1-ATG (rat, UniProt Q9JJI5 1-425).
T8 sequence (looked up): T3 sequence (looked up)
As to the kind of experiment: cell-based or functional assay.

Test [14] deals with T3, rat NMUR1-TTG. As to the kind of experiment: 125I-hNMU-25 displacement, cell membranes. The source holds these as a separate data set.
For test [15], the target named is T1, human NMUR2. As to the kind of experiment: 125I-hNMU-25 displacement, cell membranes.
Test [16] deals with T2, human NMUR1. As to the kind of experiment: 125I-hNMU-25 displacement, cell membranes. This is another data set of the same source.
In test [17] the target is T5, mouse NMUR1-ATG. As to the kind of experiment: 125I-hNMU-25 displacement, cell membranes.
For test [18], the target named is T6, mouse NMUR1-CTG. As to the kind of experiment: 125I-hNMU-25 displacement, cell membranes.
Test [19] has as its target T7, rat NMUR2. As to the kind of experiment: 125I-hNMU-25 displacement, cell membranes.
The target in test [20] is T4, mouse NMUR2. As to the kind of experiment: 125I-hNMU-25 displacement, cell membranes. The source holds these as a separate data set.
Test [21] deals with T8, rat NMUR1-ATG. As to the kind of experiment: 125I-hNMU-25 displacement, cell membranes.

T4 sequence (Q8BZ39 whole entry): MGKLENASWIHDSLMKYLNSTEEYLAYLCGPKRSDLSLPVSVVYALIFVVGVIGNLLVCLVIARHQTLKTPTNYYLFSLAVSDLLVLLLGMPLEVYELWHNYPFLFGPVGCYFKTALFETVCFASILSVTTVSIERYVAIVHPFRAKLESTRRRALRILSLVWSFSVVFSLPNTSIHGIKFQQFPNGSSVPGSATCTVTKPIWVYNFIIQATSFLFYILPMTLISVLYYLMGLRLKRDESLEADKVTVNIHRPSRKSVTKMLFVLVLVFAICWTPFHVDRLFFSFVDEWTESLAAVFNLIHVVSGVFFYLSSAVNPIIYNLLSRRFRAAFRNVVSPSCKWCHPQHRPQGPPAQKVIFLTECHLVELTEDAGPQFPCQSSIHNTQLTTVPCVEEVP
T1 sequence (Q9GZQ4 whole entry): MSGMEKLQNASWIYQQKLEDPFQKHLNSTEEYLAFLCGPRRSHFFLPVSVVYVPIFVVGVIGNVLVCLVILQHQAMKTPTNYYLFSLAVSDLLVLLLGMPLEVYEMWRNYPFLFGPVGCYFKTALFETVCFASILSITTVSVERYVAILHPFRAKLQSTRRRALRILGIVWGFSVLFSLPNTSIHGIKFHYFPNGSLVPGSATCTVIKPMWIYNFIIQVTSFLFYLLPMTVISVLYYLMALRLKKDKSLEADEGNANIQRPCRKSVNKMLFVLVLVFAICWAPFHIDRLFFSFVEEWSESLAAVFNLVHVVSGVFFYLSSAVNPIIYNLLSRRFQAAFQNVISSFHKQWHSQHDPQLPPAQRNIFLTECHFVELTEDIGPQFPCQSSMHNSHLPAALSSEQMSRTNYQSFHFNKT
T7 sequence (Q9ESQ4 whole entry): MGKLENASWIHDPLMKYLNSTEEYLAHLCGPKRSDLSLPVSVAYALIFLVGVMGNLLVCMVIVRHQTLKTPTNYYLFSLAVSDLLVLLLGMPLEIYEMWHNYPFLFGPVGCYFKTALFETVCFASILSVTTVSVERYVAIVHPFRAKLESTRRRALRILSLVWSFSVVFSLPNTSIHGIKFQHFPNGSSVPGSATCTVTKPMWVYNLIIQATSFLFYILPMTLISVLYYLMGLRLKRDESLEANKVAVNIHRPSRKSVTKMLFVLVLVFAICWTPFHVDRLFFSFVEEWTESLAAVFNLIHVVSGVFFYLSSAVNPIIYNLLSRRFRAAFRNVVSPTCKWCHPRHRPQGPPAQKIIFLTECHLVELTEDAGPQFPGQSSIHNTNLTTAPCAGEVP

Take FRVDEEFQSPFASQSRGYFLFRPRN-NH2 (also called hNMU-25; native hNMU) [human NMU-25]: the “% activity” value in test [1] and in test [2] was 100% throughout. For the same molecule, the entries for the concentration for a half-maximal effect (EC50) in test [1] and in [2] were 1.5 nM and 5.5 nM, respectively. Also, the half-maximal inhibitory concentration (IC50) stood at 0.2 nM in test [3]; 0.14 nM in [4]; 0.2 nM in test [5]; 0.2 nM in test [14]; 0.056 nM in test [15]; 0.14 nM in test [16]. In addition, the half-inhibitory concentration (IC50) stood at 0.4 nM in [17]; 0.15 nM in [18]; 0.6 nM in test [19]; 0.2 nM in [20]; 1.2 nM in test [21]. Further, the “IC50 (nM), functional” value in test [6] turned out to be 1 nM; in [7], 0.8 nM; in test [8], 0.2 nM; in test [9], 0.9 nM; in test [10], 2.9 nM; in test [11], 1.6 nM. The “IC50 (nM), functional” value was 0.2 nM in test [12] and 1.3 nM in test [13].
